B1: Inhibitor of nuclear factor kappa-B kinase subunit beta (Homo sapiens), O14920 (parent)
chain: MSWSPSLTTQTCGAWEMKERLGTGGFGNVIRWHNQETGEQIAIKQCRQELSPRNRERWCLEIQIMRRLTHPNVVAARDVPEGMQNLAPNDLPLLAMEYCQGGDLRKYLNQFENCCGLREGAILTLLSDIASALRYLHENRIIHRDLKPENIVLQQGEQRLIHKIIDLGYAKELDQGSLCTSFVGTLQYLAPELLEQQKYTVTVDYWSFGTLAFECITGFRPFLPNWQPVQWHSKVRQKSEVDIVVSEDLNGTVKFSSSLPYPNNLNSVLAERLEKWLQLMLMWHPRQRGTDPTYGPNGCFKALDDILNLKLVHILNMVTGTIHTYPVTEDESLQSLKARIQQDTGIPEEDQELLQEAGLALIPDKPATQCISDGKLNEGHTLDMDLVFLFDNSKITYETQISPRPQPESVSCILQEPKRNLAFFQLRKVWGQVWHSIQTLKEDCNRLQQGQRAAMMNLLRNNSCLSKMKNSMASMSQQLKAKLDFFKTSIQIDLEKYSEQTEFGITSDKLLLAWREMEQAVELCGRENEVKLLVERMMALQTDIVDLQRSPMGRKQGGTLDDLEEQARELYRRLREKPRDQRTEGDSQEMVRLLLQAIQSFEKKVRVIYTQLSKTVVCKQKALELLPKVEEVVSLMNEDEKTVVRLQEKRQKELWNLLKIACSKVRGPVSGSPDSMNASRLSQPGQLMSQPSTASNSLPEPAKKSEELVAEAHNLCTLLENAIQDTVREQDQSFTALDWSWLQTEEEEHSCLEQAS

Variants of: B1
Conditions: with keap1_human KEAP1, Q14145
Sequence of keap1_human KEAP1, Q14145 (Q14145 whole entry): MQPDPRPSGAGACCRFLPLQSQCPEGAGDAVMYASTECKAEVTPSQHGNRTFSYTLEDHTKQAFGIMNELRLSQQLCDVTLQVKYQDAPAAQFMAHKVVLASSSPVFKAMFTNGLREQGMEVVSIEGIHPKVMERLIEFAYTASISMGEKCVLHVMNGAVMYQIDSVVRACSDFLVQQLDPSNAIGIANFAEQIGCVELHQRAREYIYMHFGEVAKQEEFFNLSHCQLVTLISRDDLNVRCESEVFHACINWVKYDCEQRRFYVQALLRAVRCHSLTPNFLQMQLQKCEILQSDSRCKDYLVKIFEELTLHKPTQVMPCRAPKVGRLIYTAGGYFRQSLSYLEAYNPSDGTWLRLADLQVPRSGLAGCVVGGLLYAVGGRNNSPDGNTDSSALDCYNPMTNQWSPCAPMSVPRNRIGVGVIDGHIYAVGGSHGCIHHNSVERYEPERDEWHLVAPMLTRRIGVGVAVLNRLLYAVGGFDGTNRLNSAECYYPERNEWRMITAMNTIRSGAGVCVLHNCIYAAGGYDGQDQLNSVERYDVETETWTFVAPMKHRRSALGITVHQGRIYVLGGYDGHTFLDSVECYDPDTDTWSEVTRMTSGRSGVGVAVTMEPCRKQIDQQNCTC

effect of a mutation on the interaction | Variant
decreasing interaction | E39G

— IntAct's records for PubMed 20600852
